Values belong to the substance of their own block, whether it stands above or below them.
Tests used:
[1] = molecular target: KDR/flk-1 receptor on 293/KDR or PAE/KDR cells (UniProt P35968); experiment: cell-based or functional assay
[2] = molecular target: S-peptide fragment of bovine pancreatic ribonuclease A (bovine); experiment: cell-based or functional assay

Sequence of Lip(Dox)-SP-FVEGF121 complex (P15692 other isoform, or with tags, fused parts or gaps): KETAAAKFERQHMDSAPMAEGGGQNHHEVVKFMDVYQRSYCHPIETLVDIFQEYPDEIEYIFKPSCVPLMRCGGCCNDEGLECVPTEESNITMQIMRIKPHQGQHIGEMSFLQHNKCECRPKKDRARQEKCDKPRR
Sequence of Lip(Dox)-SP-FVEGF121 complex (P61823 47-150): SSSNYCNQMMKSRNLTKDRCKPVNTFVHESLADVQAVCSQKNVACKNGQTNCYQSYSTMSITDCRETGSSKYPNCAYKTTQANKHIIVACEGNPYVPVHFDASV
Sequence of KDR/flk-1 receptor on 293/KDR or PAE/KDR cells (P35968 20-1356 limits assumed): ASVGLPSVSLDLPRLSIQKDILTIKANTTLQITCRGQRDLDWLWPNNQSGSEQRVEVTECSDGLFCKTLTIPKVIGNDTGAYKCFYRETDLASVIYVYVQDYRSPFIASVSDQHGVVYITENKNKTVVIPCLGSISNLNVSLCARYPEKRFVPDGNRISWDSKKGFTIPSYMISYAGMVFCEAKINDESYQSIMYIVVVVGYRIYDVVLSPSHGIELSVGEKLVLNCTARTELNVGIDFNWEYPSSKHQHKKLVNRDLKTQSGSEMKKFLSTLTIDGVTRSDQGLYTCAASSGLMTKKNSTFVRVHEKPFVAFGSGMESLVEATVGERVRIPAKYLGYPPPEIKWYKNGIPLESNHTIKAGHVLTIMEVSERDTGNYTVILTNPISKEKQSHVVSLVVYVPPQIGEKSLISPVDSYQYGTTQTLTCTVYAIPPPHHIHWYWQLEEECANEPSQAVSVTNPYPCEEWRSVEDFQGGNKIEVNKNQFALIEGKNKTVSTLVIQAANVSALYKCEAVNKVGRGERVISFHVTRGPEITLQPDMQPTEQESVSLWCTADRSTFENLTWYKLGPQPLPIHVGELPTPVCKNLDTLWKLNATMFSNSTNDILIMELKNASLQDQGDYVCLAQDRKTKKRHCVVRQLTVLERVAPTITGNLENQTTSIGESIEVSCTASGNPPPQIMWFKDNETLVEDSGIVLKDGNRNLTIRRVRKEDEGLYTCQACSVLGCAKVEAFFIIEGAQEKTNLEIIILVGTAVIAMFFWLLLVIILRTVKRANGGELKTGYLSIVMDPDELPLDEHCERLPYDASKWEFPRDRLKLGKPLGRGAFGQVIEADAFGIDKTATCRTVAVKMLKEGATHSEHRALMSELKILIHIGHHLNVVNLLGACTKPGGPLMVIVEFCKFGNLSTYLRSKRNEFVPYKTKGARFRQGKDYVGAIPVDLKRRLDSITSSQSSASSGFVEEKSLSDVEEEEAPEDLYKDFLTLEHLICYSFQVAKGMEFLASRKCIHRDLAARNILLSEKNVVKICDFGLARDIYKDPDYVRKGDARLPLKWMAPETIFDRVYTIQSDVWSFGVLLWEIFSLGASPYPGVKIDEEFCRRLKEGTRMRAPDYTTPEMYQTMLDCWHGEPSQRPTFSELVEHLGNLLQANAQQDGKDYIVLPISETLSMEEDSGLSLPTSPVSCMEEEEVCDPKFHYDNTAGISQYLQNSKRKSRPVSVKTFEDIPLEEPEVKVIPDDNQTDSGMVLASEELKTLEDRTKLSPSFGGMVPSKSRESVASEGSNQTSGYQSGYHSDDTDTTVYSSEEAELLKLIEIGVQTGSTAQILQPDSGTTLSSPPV
Sequence of MBS-modified S-protein, 20-fold molar excess of sulfo-MBS (P61823 47-150): as the sequence (P61823 47-150) above
Sequence of MBS-modified S-protein, 40-fold molar excess of sulfo-MBS (P61823 47-150): as above
Sequence of S-protein fragment of bovine ribonuclease (Sigma) (P61823 47-150): as above
Sequence of MBS-modified S-protein, 10-fold molar excess of sulfo-MBS (P61823 47-150): as above
Sequence of MBS-modified S-protein, 2-fold molar excess of sulfo-MBS (P61823 47-150): as above

Substance: Lip(Dox)-SP-FVEGF121 complex (from UniProt P15692 27-147; P61823 47-150)
IC50 of growth inhibition of 293/KDR cells [1]: 5 nM

Substance: MBS-modified S-protein, 2-fold molar excess of sulfo-MBS (from UniProt P61823 47-150)
Ribonuclease Activity (%), S-tag Rapid Assay Kit; SulphoMBS molar excess: 2 [2]: 57%

Substance: MBS-modified S-protein, 10-fold molar excess of sulfo-MBS (from UniProt P61823 47-150)
Ribonuclease Activity (%), S-tag Rapid Assay Kit; SulphoMBS molar excess: 10 [2]: 38%

Substance: MBS-modified S-protein, 40-fold molar excess of sulfo-MBS (from UniProt P61823 47-150)
Ribonuclease Activity (%), S-tag Rapid Assay Kit; SulphoMBS molar excess: 40 [2]: 25%

Next, values leading:

Ribonuclease Activity (%), S-tag Rapid Assay Kit; SulphoMBS molar excess: 20 [2]: 36%
Substance: MBS-modified S-protein, 20-fold molar excess of sulfo-MBS (from UniProt P61823 47-150)

Ribonuclease Activity (%), S-tag Rapid Assay Kit; SulphoMBS molar excess: none [2]: 100%
Substance: S-protein fragment of bovine ribonuclease (Sigma) (from UniProt P61823 47-150)
